For 4 substances, stoichiometry N results are on record in paper PMC10702828.

In test [1] the target is Ipi3 (Chaetomium thermophilum (endogenous in mycelium)). The experiment in a line: cryo-EM structure; pre-60S particles from the Flag eluates of PT-Rsa4 E117D with Nop7-Flag, Rix1-Flag or Flag-Las1.
For test [2] the target is unchanged. The experiment in a line: cryo-EM structure; isolated rixosome from the PTF-Las1 eluate; Rix1 complex and Las1-Grc3 processed individually, whole rixosome at low resolution.
Test [3] has as its target Rix1 (Chaetomium thermophilum (endogenous in mycelium)). The experiment in a line: cryo-EM structure; pre-60S particles from the Flag eluates of PT-Rsa4 E117D with Nop7-Flag, Rix1-Flag or Flag-Las1.
The target is the same in test [4]. The experiment in a line: cryo-EM structure; isolated rixosome from the PTF-Las1 eluate; Rix1 complex and Las1-Grc3 processed individually, whole rixosome at low resolution.
The target in test [5] is polynucleotide kinase Grc3 (Chaetomium thermophilum (endogenous in mycelium)). Described as above.
Test [6] concerns the target wild‐type ct PTF‐Las1 (Chaetomium thermophilum). The test is described as above.

Turning to Ipi3 (natural protein), the stoichiometry N in test [1] and in test [2] was 2 copies throughout.
In the case of Rix1 (natural protein), the stoichiometry N in test [3] and in test [4] was 2 copies each time.
Substance polynucleotide kinase Grc3 (enzyme) displayed a stoichiometry N in test [5] of 2 copies.
In test [6], wild‐type ct PTF‐Las1 (enzyme) yielded a stoichiometry N of 2 copies.

What is called stoichiometry N is a count of units in the complex or per binding partner.
